According to US20250355001A1, “METHOD FOR DETECTING A TAU PROTEIN FRAGMENT IN A SAMPLE” (GTINVENT LIMITED, priority 2022, published 2025):

B1: E2E8 mAb: E2E8 reformatted; heavy chain SEQ ID NO: 493, light chain 494 (antibody)
heavy: QVQLQESGPSLVKPSQTLSLTCTVSGFSLTDRGVAWVRQAPGKALEWVGTMRSGGTIDYNPALKSRLSITRDTSKSQVFLSLSSVTTEDMAMYYCARGYLSGDRYAWGRGLLVTVSSAKTTAPSVYPLAPVCGDTTGSSVTLGCLVKGYFPEPVTLTWNSGSLSSGVHTFPAVLQSDLYTLSSSVTVTSSTWPSQSITCNVAHPASSTKVDKKIEPRGPTIKPCPPCKCPAPNLLGGPSVFIFPPKIKDVLMISLSPIVTCVVVDVSEDDPDVQISWFVNNVEVHTAQTQTHREDYNSTLRVVSALPIQHQDWMSGKEFKCKVNNKDLPAPIERTISKPKGSVRAPQVYVLPPPEEEMTKKQVTLTCMVTDFMPEDIYVEWTNNGKTELNYKNTEPVLDSDGSYFMYSKLRVEKKNWVERNSYSCSVVHEGLHNHHTTKSFSRTPGK
light: QAVLTQPSSVSKSLGQSVSIACSGSRSDIGYGNYVSWFQQIPGSAPKLLIYDTNTRASGVPDRFSGARSGNTATLTINSLQAEDEADYYCANIDSSRSHLFGSGTRLTVLGGQPKSSPSVTLFPPSSEELETNKATLVCTITDFYPGVVTVDWKVDGTPVTQGMETTQPSKQSNNKYMASSYLTLTARAWERHSSYSCQVTHEGHTVEKSLSRADCS
modifications: E2E8 mAB Heavy Chain; E2E8 mAB Light Chain
B2: E2E8: dGAE (391E) specific clone, Table 9; SEQ ID NO: 248 (protein)
scFv: QVQLQESGPSLVKPSQTLSLTCTVSGFSLTDRGVAWVRQAPGKALEWVGTMRSGGTIDYNPALKSRLSITRDTSKSQVFLSLSSVTTEDMAMYYCARGYLSGDRYAWGRGLLVTVSSEGKSSGASGESKVDDQAVLTQPSSVSKSLGQSVSIACSGSRSDIGYGNYVSWFQQIPGSAPKLLIYDTNTRASGVPDRFSGARSGNTATLTINSLQAEDEADYYCANIDSSRSHLFGSGTRLTVLG
modifications: E2E8 amino acid sequence
B3: E1E8: dGAE (391E) specific clone, Table 9; SEQ ID NO: 250 (protein)
scFv: QVQLQESGPSLVKPSQTLSLTCTVSGFSLTDWGVAWVRQAPGKALEWLGTMRSGGTTDDNPALKSRLSITRDTSKSQVSLSLSSVTTEDMAMYYCARGYLSGVHYAWGRGLLVTVSSEGKSSGASGESKVDDQAVLTQPSSVSGSLGQSVSITCSGSSSNVGDGRYVSWFQQVPGSAPKLLIYDTTSRASGVPDRFSGSRSGNTATLIITSLQAEDEADYYCASIDSGNNLLFGSGTRLTVLG
modifications: E1E8 amino acid sequence

What was measured:
aggregated dGAE = aggregated dGAE (Homo sapiens, UniProt P10636); experiment: Capture ELISA ranking mAbs for capture of dGAE aggregates; assay type: binding; conditions: capture mAb 1 μg/ml; 800 nM aggregated dGAE
Procedure: The aggregation cascade of natively unfolded tau into insoluble filaments is a defining pathological feature of AD. Therefore, it is logical to target aggregated tau filaments for both therapeutic and diagnostic purposes. The following experiment was performed to assess the ability of our dGA mAb panel to bind aggregated dGAE using a capture ELISA method. Aggregates were prepared by incubating 100 μM dGAE and 10 mM dTT for 24 h at 37° C. with shaking at 700 RPM. The following day, dGAE aggregates were centrifuged at 17,000×g for 20 min and the supernatant was removed. The remaining pellet was washed with 10 mM phosphate buffer and centrifuged as above. Washing was repeated a further two times to remove any remaining dGAE monomer. The dGAE pellet was resuspended in 100 μl of 10 mM phosphate buffer. (Using a separate capture ELISA based quantification, we have worked out the efficiency of our dGAE aggregation as 80%)
Following washing, 800 nM aggregated dGAE was added to the designated wells, double diluted across the plate and incubated for 1 h at RT. The plate was washed again and 1 μg/ml S1G2 scAb was added as detection antibody and incubated for 1 h at RT. To the row where S1G2 mAb was used for capture, […] s1D12 scAb was added as […] instead of S1G2. The assay was developed using HRP labelled HuCK as described previously.

dGAE (SEQ ID NO: 4) = dGAE (SEQ ID NO: 4) (Homo sapiens, UniProt P10636); experiment: Biacore X100 SPR kinetics of scAbs for dGAE; assay type: binding; conditions: Table 24, scAb, dGAE analyte; for Kd: dissociation rate
Procedure: Surface plasmon resonance (SPR) is widely regarded as the gold standard for real time measurement of protein-protein interactions such as antibody binding. All SPR experiments were carried out using a Biacore X100 machine and HBS EP+ running buffer (GE Healthcare). A ‘capture’ method was followed for affinity measurements, where an anti-human constant kappa chain (HuCk) antibody was conjugated to the surface of a CM5 sensor chip using an amine coupling kit and scAb molecules were immobilised via their HuCk domain. Amine coupling is a very common approach for immobilising the ligand to the chip surface. The chip surface has a dextran matrix derivatised with carboxyl groups, which after activation with N-hydroxysuccinimide (NHS) and 1-ethyl-3-(3-dimethylaminopropyl) carbodiimide (EDC), form reactive succinimide esters which allows the covalent capturing of the ligand via any available primary amine groups (e.g. Lysine) on the ligand (in this case anti-HuCk antibody). The capture antibody was diluted 1/100 in 10 mM Sodium acetate buffer pH 5.0 and passed over the activated chip surface for a period of at least 420 s. Final ligand immobilisation levels over 12,000 RU were deemed to be satisfactory.
Following immobilisation, the level of each scAb to be captured was identified using the standard SPR equation with a theoretical RMax of 100 RU. Analyte MW refers to the molecular weight of hT40 or dGA/dGAE molecules, while ligand MW refers to the molecular weight of the scAbs tested. RL is the desired capture level and S refers to the stoichiometric ratio:
The scAb to be tested was added only to flow cell 2 so that flow cell 1 could act as a control to subtract any interaction with the analyte and the chip surface. Both single and multi-cycle runs were utilised using wizards developed in the Biacore X100 control software which are both accepted methods of kinetic analysis (Karlsson, R., et al. Analyzing a kinetic titration series using affinity biosensors (2006) Analytical Biochemistry 349:136-47). The multi-cycle protocol was as follows-Three start-up cycles composed of an initial capture, to the desired level, of the scAb to be tested was performed followed by a 30 s injection of glycine buffer pH 2.0 after each cycle to regenerate the chip surface. The regeneration step removed any captured scAb whilst leaving the capture antibody intact and able to repeat the capture for the next cycle. […]
The single cycle kinetics protocol was similar and utilised the same level of scAb capture. […] Binding responses were analysed in Biacore X100 evaluation software and data fitted to a 1:1 binding model to obtain kinetic and affinity characterisation.

[1] = tested on: 13 aa tau peptides of hT40; experiment: Alanine scanning mutagenesis (ASM) peptide ELISA; assay type: binding, human; conditions: alanine substituted peptides; numbering SEQ ID NO: 1
Procedure: Briefly, 5 μg/ml streptavidin (Thermo Fisher) was adsorbed to Nunc 96-well MaxiSorp plates and following incubation at 37° C. for 1 h, the plates were washed as normal and blocked with 2% MPBS. N-terminally biotinylated peptides (Prolmmune Ltd) were added to the plates and incubated for 1 h at 37° C. Subsequently, test scAbs at starting concentrations of 100-500 nM was added and double diluted across the plate for each peptide and incubated for 1 h at 37° C. Rest of the ELISA was conducted as described above and the plates were read at absorbance 450 nm. Immunoreactivity of the scAb of interest was quantified as the % of scAb was bound for each peptide at a chosen concentration (FIG. 15-20).

[2] = tested on: hT40, dGA, dGAE and truncated tau fragments; experiment: Binding ELISA / epitope mapping of anti-tau scAbs with truncated tau proteins and 13mer peptides; design: species or system human; conditions: for cross-reactivity using hT40, dGA and dGAE antigens: ELISA, 'E' group scAbs; for Tau proteins/fragments with positive scAb reactivity: Table 15, binding ELISA, residue numbers of hT40
In short: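 Plates coated with 1 μg/ml tau protein, or 5 μg/ml streptavidin then 1 μg/ml biotinylated 13mer peptide; blocked with 2% MPBS. scAbs added at a starting concentration and double-diluted. Bound scAb detected with HRP anti-human C kappa and read as absorbance.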

[3] = target: T1, hT40 (T441, SEQ ID NO: 1) (Homo sapiens, UniProt P10636); experiment: Biacore X100 SPR kinetics of scAbs for hT40; assay type: binding; conditions: scAb format
T1 construct: Full length tau (hT40)
In short: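 Captured scAb on anti-HuCk CM5 surface (flow cell 1 as reference) in HBS-EP+, capture set for theoretical RMax 100 RU; hT40 injected multi-cycle (0.15625–100 nM) or single-cycle (6.25–100 nM), 120 s association, 420 s dissociation, glycine pH 2.0 regeneration. Kinetics and affinity from 1:1 binding model fit.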

Chain of dGAE (SEQ ID NO: 4) (P10636 614-708): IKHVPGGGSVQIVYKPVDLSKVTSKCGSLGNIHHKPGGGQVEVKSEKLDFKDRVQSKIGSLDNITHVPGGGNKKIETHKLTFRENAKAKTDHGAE
T1 sequence (P10636 1-441 isoform P10636-8): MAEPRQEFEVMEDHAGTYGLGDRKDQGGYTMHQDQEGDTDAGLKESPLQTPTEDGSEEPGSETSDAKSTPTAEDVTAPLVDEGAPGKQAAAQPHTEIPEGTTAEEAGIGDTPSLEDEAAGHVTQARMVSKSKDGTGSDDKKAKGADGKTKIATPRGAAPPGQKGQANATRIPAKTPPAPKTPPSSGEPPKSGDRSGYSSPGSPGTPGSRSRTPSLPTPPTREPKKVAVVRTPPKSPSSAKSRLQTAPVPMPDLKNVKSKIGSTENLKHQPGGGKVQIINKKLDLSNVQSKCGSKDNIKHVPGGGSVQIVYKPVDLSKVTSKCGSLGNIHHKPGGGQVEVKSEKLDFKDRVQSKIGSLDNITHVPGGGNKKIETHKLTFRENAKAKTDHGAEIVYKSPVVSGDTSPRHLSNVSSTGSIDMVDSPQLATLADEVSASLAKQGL
Chain of aggregated dGAE (P10636 614-708): as the sequence (P10636 614-708) above

Molecule	ability to capture dGAE aggregates (aggregated dGAE)	ka (dGAE (SEQ ID NO: 4))	Kd (dGAE (SEQ ID NO: 4))	critical binding residues [1]	cross-reactivity using hT40, dGA and dGAE antigens [2]	Tau proteins/fragments with positive scAb reactivity [2]	Epitope ([2]; Table 26 summary, top scAbs, residues of hT40)	Detection scAb (Epitope) ([2]; Table 28 (LoD table), residues of hT40)	T441 binding in SPR (result in words) ([3]; Table 23)	hT40 binding (result in words) ([3]; Table 26 summary)
B1	most efficient at capturing aggregated dGAE									
B2		477000 M⁻¹ s⁻¹	0.0001915 s⁻¹	391 (E)	specific dGAE binding	297-391 (dGAE)	391	E2E8 (E dependant)	No T441 binding	No hT40 binding
B3		153500 M⁻¹ s⁻¹	0.0014 s⁻¹		specific dGAE binding	297-391 (dGAE)				
